Patent publication US20230414735A1, “NEOANTIGENS AND METHODS OF THEIR USE” (priority 2016, published 2023)

Legend:
HLA-B08:01 (human) [1] = experiment: competition with 125I probe peptide for purified HLA class I; details: remark: other sources report otherwise
HLA-B08:01 (human) [2] = experiment: pMHC-I dissociation, 125I-b2m; details: remark: other sources report otherwise
HLA-B08:01 (human) [3] = experiment: competition with 125I probe peptide on purified HLA

| Binder | IC50 (HLA-B08:01 (human) [1]) | Stability (T1/2 (h)) (HLA-B08:01 (human) [2]) | IC50 (HLA-B08:01 (human) [3]) |
| --- | --- | --- | --- |
| CMGSMNRRPI | 80 nM | – | – |
| NQRPILTII | 20 nM | – | – |
| GMNWRPILTI | – | 0 h | – |
| MNWRPILTI | 1 nM | 0 h | – |
| LPRKPTRAA | – | 0 h | – |

Second part, the binder after the results:

| IC50 (HLA-B08:01 (human) [1]) | Stability (T1/2 (h)) (HLA-B08:01 (human) [2]) | IC50 (HLA-B08:01 (human) [3]) | Binder |
| --- | --- | --- | --- |
| – | – | 0.4 nM | SLRRKYLRV |
| – | 0 h | – | MALNSEALSV |
